From paper PMC3163267, “Structure and Organisation of SinR, the Master Regulator of Biofilm Formation in Bacillus subtilis” (Journal of Molecular Biology, 2011)

T1: SinR (Bacillus subtilis, UniProt P06533 1-111)
T1 sequence: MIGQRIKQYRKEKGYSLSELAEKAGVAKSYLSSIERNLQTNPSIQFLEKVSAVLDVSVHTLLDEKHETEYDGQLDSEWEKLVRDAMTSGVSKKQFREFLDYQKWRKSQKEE

B1: tandem repeat SinRBM duplex (dsDNA)
DNA 1: GTCGTTCTCTCGTTCTCTATAA
DNA 2: TTATAGAGAACGAGAGAACGAC
B2: SinR(74–111) (domain or fragment, B. subtilis, UniProt P06533 74-111, looked up)
chain: LDSEWEKLVRDAMTSGVSKKQFREFLDYQKWRKSQKEE
notes: SinR, Bacillus subtilis, C-terminal domain, residues 74–111; A selenomethionine form was also crystallised; also called C-terminal domain of SinR; not shown: His6, N-terminal, cleaved
B3: SinI (natural protein, B. subtilis, UniProt P23308 1-57, looked up)
chain: MKNAKQEHFELDQEWVELMVEAKEANISPEEIRKYLLLNKKSAHPGPAARSHTVNPF
notes: Cloned into the same modified pET28 vector and cleaved as described for SinR, so a residual N-terminal Gly-Pro-Ala probably remains (surmised); Dimer by SEC-MALLS
B4: single-site SinRBM duplex (dsDNA)
DNA 1: AATTTTTCGTTCTTTATAAAAT
DNA 2: ATTTTATAAAGAACGAAAAATT
B5: SinR (natural protein, B. subtilis, UniProt P06533 1-111, looked up)
chain: T1 sequence
notes: After cleavage with human rhinovirus 3C protease a residual N-terminal Gly-Pro-Ala is expected to remain; Tetramer by SEC-MALLS; also called intact SinR; full-length SinR; not shown: His6, N-terminal, cleaved

Legend:
SinR [1] = biological target: T1, SinR; experiment: fluorescence anisotropy; FA: 10 mM Hepes pH 8.0, 100 mM NaCl, 1 mM DTT, 1 mM EDTA, 5 nM HEX-DNA, 25 C; SPR: 10 mM Hepes pH 8.0, 150 mM NaCl, 3 mM EDTA, 0.05% P20; settings: protein: recombinant; tags: N-terminal Gly-Pro-Ala left after 3C cleavage of His6 tag; chain copies: 4; label: 5' HEX on one strand; 22 bp
[2] = biological target: the molecule itself; experiment: SEC-MALS; SEC-MALLS on Superdex 75 HR 10/30; 25 mM Tris pH 8.5, 200 mM NaCl, 0.5 mM EDTA; 100 µl samples of 1 mg/ml protein or an equimolar mixture of SinR and SinI
SinR [3] = biological target: B5; experiment: as above; settings: both partners purified

Row | Binder | Kd (SinR [1]) | stoichiometry N [2] | stoichiometry N (SinR [3])
1 | B1 | 3.7 µM |  | 
2 | B2 |  | 4 | 
3 | B3 |  | 2 | 1
4 | B4 | 2.8 µM |  | 
5 | B5 |  | 4 | 
